Measured values from patent US20140315822A1.

Legend:
[1] = biological target: T1, PDZ domain of the human MAST2 protein (human), Q6P0Q8
T1 chain: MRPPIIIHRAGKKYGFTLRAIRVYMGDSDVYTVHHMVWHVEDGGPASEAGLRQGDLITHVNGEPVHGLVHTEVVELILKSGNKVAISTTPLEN

[2] = biological target: T2, PDZ domain of the human PTPN4 protein (human), P29074; assay: method not restated in the table; ITC per paragraph 50
T2 chain: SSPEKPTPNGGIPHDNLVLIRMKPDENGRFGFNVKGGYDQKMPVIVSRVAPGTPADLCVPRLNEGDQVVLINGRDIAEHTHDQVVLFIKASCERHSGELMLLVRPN

Binder: SWESHKSGGETRL (modifications not checked) [ATT13]
- Kd [1]: 0.57 µM
- Kd [2]: 160 µM
